Binding result and Kd data for two molecules are collected here from article doi:10.1101/2024.08.29.610189 (bioRxiv, 2024).

By Kd is commonly meant a measure of binding affinity in units of concentration.

Experiment [1] deals with T1, Atg17–Atg29–Atg31 complex, wild type (S. cerevisiae (budding yeast), UniProt Q06410 1-417; Q12092 1-213; Q12421 1-196).
T1 sequence (looked up) 1: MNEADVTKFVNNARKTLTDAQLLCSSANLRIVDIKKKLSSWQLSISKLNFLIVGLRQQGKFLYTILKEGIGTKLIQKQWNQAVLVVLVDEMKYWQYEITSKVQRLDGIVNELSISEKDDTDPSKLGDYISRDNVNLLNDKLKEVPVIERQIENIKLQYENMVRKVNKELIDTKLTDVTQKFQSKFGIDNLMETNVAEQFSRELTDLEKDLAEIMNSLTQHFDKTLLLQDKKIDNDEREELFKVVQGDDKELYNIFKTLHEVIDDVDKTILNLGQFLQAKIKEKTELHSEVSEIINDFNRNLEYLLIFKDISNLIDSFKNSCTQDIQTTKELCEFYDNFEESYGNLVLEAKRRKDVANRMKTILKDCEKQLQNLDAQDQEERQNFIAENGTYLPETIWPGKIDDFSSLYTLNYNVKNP
T1 sequence (looked up) 2: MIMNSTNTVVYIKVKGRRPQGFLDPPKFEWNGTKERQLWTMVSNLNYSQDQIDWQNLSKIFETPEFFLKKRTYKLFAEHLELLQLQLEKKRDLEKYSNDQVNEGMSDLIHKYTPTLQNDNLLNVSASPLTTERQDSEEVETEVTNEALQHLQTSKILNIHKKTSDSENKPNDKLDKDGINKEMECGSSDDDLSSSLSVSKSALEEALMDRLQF
T1 sequence (looked up) 3: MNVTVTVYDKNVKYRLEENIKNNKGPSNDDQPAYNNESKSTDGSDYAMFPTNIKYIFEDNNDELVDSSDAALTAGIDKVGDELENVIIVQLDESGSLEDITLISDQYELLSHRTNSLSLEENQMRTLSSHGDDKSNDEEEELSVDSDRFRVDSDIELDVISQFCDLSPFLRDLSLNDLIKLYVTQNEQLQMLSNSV
Briefly: pull-down.

In experiment [2] the target is Atg17–Atg31C (residues 174–196) complex (S. cerevisiae (budding yeast), UniProt Q06410 1-417; Q12421 174-196). The experiment in a line: ITC. (ITC needs no label: the signal is the heat of the interaction.)

B1: GST–Atg12^17BH F50A (domain or fragment, S. cerevisiae (budding yeast), UniProt P38316 42-62, looked up)
chain: TVQNRLELASRRLSQLGLASD
Turning to B1, the binding result in experiment [1] was “binds”.

B2: Atg12^17BH–mGFP, wild type (Atg12 residues 42–62 with C-terminal mGFP) (domain or fragment, S. cerevisiae (budding yeast), UniProt P38316 42-62, looked up)
chain: TVQNRLELFSRRLSQLGLASD
As for B2, the affinity in experiment [2], expressed as Kd, was 3.8 µM.
